According to CN111253487A (GUANGDONG HEC PHARMACEUTICAL, dated 2020):

T1: 表达在肿瘤细胞NALM-6表面的CD19 (UniProt P15391 20-556, limits assumed)
T1 construct: whole, on cells; also called CD19阳性细胞; NALM-6细胞
T1 sequence (looked up): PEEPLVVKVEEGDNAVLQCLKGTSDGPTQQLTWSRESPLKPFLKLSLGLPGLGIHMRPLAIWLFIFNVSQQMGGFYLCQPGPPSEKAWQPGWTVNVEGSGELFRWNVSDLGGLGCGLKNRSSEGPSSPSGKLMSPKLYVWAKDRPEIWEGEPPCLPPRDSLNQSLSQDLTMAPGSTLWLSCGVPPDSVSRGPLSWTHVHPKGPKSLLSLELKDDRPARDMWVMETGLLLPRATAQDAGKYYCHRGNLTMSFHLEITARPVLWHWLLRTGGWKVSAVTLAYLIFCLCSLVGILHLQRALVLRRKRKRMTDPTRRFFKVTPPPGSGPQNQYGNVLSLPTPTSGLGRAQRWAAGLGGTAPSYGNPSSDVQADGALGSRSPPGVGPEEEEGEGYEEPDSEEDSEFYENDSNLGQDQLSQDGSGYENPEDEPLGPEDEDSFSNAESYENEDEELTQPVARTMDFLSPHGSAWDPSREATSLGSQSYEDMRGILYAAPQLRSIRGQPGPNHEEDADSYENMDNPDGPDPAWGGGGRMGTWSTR

T2: CD19蛋白 (购自acro) (UniProt P15391 20-291)
T2 construct: also called 重组CD19蛋白 (ACRO, CD9-H52H2)
T2 sequence (looked up): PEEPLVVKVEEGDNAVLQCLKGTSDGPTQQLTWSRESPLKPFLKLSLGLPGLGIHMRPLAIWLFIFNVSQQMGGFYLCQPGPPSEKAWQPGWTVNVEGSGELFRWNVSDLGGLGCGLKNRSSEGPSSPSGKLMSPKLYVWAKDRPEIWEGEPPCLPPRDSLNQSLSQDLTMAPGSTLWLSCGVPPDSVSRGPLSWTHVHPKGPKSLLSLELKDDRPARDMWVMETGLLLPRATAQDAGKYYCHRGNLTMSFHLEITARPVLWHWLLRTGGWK

T3: CD19胞外区蛋白 (abcam, ab234966, 氨基酸序列编号第20位至291位) (UniProt P15391 20-291)
T3 construct: range 20-291; also called 变性的CD19重组蛋白; CD19重组蛋白
T3 sequence (looked up): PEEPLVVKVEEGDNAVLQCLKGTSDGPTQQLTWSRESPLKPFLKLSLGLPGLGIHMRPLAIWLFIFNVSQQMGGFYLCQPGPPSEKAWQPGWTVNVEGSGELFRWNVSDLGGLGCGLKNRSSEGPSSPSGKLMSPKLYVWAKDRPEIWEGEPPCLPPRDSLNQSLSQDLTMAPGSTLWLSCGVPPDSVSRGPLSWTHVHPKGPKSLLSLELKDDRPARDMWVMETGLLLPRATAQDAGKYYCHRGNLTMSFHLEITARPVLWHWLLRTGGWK

B1: 10H10-1 scFv (单链抗体10H10-1) (scFv)
scFv: DIVMTQTPLSLPVSLGDQVSISCRSSQTLVYSNGDTYLEWYLQKPGQSPKLLIYKLSNRFSGVPDRFSGSGSGTDFTLKISRVESEDLGVYYCFQGSYFPFTFGAGTKLEIKGGGGSGGGGSGGGGSEVQLQQSGAELVRPGTSVKVSCKASGYAFTNYFIEWVIQRPGQGLEWIGVINPGNSNTNYNEKFKGKATLTADKSSSTAYMQLSSLTSDDSAVYFCARSGTTATTYAMDYWGQGTSVIVSS
notes: It was detected with PE-labelled goat anti-human antibody, and no tag or Fc is stated; also called CD19 scfv抗体 10H10-1
B2: 抗CD19鼠源抗体 10H10-1 (antibody, V domains shown)
VH: EVQLQQSGAELVRPGTSVKVSCKASGYAFTNYFIEWVIQRPGQGLEWIGVINPGNSNTNYNEKFKGKATLTADKSSSTAYMQLSSLTSDDSAVYFCARSGTTATTYAMDYWGQGTSVIVSS
VL: DIVMTQTPLSLPVSLGDQVSISCRSSQTLVYSNGDTYLEWYLQKPGQSPKLLIYKLSNRFSGVPDRFSGSGSGTDFTLKISRVESEDLGVYYCFQGSYFPFTFGAGTKLEIK
notes: Murine anti-CD19 antibody from a hybridoma

How the values were obtained:
表达在肿瘤细胞NALM-6表面的CD19 [1] = molecular target: T1, 表达在肿瘤细胞NALM-6表面的CD19; assay: flow cytometry of scFv on NALM-6 cells, PE goat anti-human secondary
CD19蛋白 (购自acro) = molecular target: T2, CD19蛋白 (购自acro); assay: ELISA, CD19 protein coated, antibody in twofold dilutions from 0.1mg/mL, OD450
表达在肿瘤细胞NALM-6表面的CD19 [2] = molecular target: T1, 表达在肿瘤细胞NALM-6表面的CD19; assay: flow cytometry on NALM-6 cells, FITC goat anti-mouse secondary
[3] = molecular target: T3, CD19胞外区蛋白 (abcam, ab234966, …); assay: western blot on reduced, denatured CD19 extracellular domain, antibody at 20μg/mL

Binder | binding result (表达在肿瘤细胞NALM-6表面的CD19 [1]) | binding result (CD19蛋白 (购自acro)) | binding result (表达在肿瘤细胞NALM-6表面的CD19 [2]) | binding result [3]
B1 | binds |  |  | 
B2 |  | binds | binds | binds
